The values that follow come from article PMC3130806.

Test [1] concerns the target FITC-labeled vicrostatin (Agkistrodon contortrix contortrix | not stated). Kind of test: fluorescence polarisation.
Test [2] deals with FITC-labeled native contortrostatin (Agkistrodon contortrix contortrix). Kind of test: fluorescence polarisation.

Turning to “purified soluble αvβ3 integrin (from UniProt P06756 31-1048; P05106 27-718) (receptor)”, the Kd in test [1] was found to be 7.4 nM; in test [2], 6.6 nM.
For “purified soluble αvβ5 integrin (from UniProt P06756 31-1048; P18084 24-719) (receptor)”, in that order: 41.2 nM and 19.5 nM.
For “soluble recombinant α5β1 integrin (from UniProt P08648 42-1049; P05556 21-728) (receptor)”, in that order: 15.2 nM and 191 nM.
